# Experimental data reported in patent publication US20070037211A1 (COUNCIL OF SCIENTIFIC AND INDUSTRIAL RESEARCH CSIR, published 2007).
# No end group written: not given here.
# T1: Hsp16.3, 16 kDa alpha-crystallin like heat shock protein of Mycobacterium tuberculosis, recombinant … (Mycobacterium tuberculosis, UniProt P9WMK1 1-144)
# T1 construct: also called M. tuberculosis Acr; not shown: pQE-8 vector-derived residues flanking the 6xHis tag
# T1 sequence: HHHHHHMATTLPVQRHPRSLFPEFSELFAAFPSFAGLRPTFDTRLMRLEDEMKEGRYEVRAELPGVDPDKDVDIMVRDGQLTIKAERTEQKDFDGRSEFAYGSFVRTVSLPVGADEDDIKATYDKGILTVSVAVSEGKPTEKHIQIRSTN
# Molecular target: T1, Hsp16.3, 16 kDa alpha-crystallin like …
# Assay: reverse phage ELISA on coated Hsp16.3, anti-M13-HRP, A405
binder,measurement,value
"YPHHFKHRHIPI (also: displayed on M13 phage, fused to coat protein, Tested as whole phage particles in reverse phage ELISA; not shown: M13 coat protein to which the peptide is fused, and the spacer to it)",fold binding over non-specific control BSA,~3 fold
